First the molecules themselves.
B1: CPEB3 Ribozyme (parent)
chain: GGGGGCCACAGCAGAAGCGUUCACGUCGCGGCCCCUGUCAGAUUCUGGUGAAUCUGCGAAUUCUGCUGU

This series covers variants of B1. Description: self-cleavage, relative activity (ratio to wild type); higher = more cleavage; co-transcriptional.
Regarding GGGGGCCACAACAGAAGCGUUCACGUCGCGGCCGCUGUCAGAUUCUGGUGAAUCUGCGAAUUCUGCUGU [G11A C34G], the self-cleavage worked out at 0.695.

For GGGGGCCACAACAGAAGCGUUCACGUCGCGGCCACUGUCAGAUUCUGGUGAAUCUGCGAAUUCUGCUGU [G11A C34A], the self-cleavage came to 0.715.

Turning to GGGGGCCACACCAGAAGCGUUCACUUCGCGGCCCCUGUCAGAUUCUGGUGAAUCUGCGAAUUCUGCUGU [G11C G25U], the self-cleavage is 0.0946.

Regarding GGGGGCCACAACAGAAGCGUUCACAUCGCGGCCCCUGUCAGAUUCUGGUGAAUCUGCGAAUUCUGCUGU [G11A G25A], the self-cleavage is 0.126.

Consider GGGGGCCACAACAGAAGCGUUCACGUCGCGGCCCCUGUCAGAUUCUGGUGAAUCUGCGAAUUCUCCUGU [G11A G65C], for which the self-cleavage worked out at 0.557.

In the case of GGGGGCCACACCGGAAGCGUUCACGUCGCGGCCCCUGUCAGAUUCUGGUGAAUCUGCGAAUUCUGCUGU [G11C A13G], the self-cleavage was found to be 0.558.

On to GGGGGCCACACCCGAAGCGUUCACGUCGCGGCCCCUGUCAGAUUCUGGUGAAUCUGCGAAUUCUGCUGU [G11C A13C], for which the self-cleavage was found to be 0.175.

On to GGGGGCCACACCUGAAGCGUUCACGUCGCGGCCCCUGUCAGAUUCUGGUGAAUCUGCGAAUUCUGCUGU [G11C A13U], for which the self-cleavage is 0.209.

In the case of GGGGGCCACAACAGAAGCGUUCACGUCGCGGCCCCUGUCAGAUUCUGGUGAAACUGCGAAUUCUGCUGU [G11A U53A], the self-cleavage came out at 0.533.

Consider GGGGGCCACAACAGAAGCGUUCACGUCGCGGCCCCUGUCAGAUUCUGGUGAAUCUGCGAAUUCUGCAGU [G11A U67A], for which the self-cleavage turned out to be 0.934.

For the variant GGGGGCCACACCAGAAGCGUUCACGUCGCGGCCCCUGUCAGAUUCUGGUGAAUCUGCGACUUCUGCUGU [G11C A60C], the self-cleavage amounted to 0.299.

As for GGGGGCCACACCAGAAGCGUUCACGUCGCGGCCCCUUUCAGAUUCUGGUGAAUCUGCGAAUUCUGCUGU [G11C G37U], the self-cleavage came out at 0.165.

Consider GGGGGCCACAACAGAAGCGUUCACGUCGCGGCCCCUUUCAGAUUCUGGUGAAUCUGCGAAUUCUGCUGU [G11A G37U], for which the self-cleavage was 0.156.

For GGGGGCCACACCAGAAGCGUUCACGUCGCGGCCCCUGUCAGAUUGUGGUGAAUCUGCGAAUUCUGCUGU [G11C C45G], the self-cleavage is 0.767.

Turning to GGGGGCCACACCAGAAGCGUUCACGUCGCGGCCCCUGUCAGAUUCUGGUGAAUCUGAGAAUUCUGCUGU [G11C C57A], the self-cleavage was 0.252.

As to GGGGGCCACACCAGAAGCGUUCACGUCGCGGCCCCUGUCAGAUUCUGGUGAAUCUCCGAAUUCUGCUGU [G11C G56C], the self-cleavage came to 0.176.

Take GGGGGCCACAACAGAAGCGUUCACGUCGCGGCCCCUGUCAGAUUCUGAUGAAUCUGCGAAUUCUGCUGU [G11A G48A]: the self-cleavage was 0.906.

Consider GGGGGCCACACCAGAAGCGUUCACGUCGCGGCCCCUGUCAGAUUCUGGUGAAUCUGCUAAUUCUGCUGU [G11C G58U], for which the self-cleavage is 0.896.

Regarding GGGGGCCACACCAGAAGCGUUCACGUCGCGGCCCCUGUCAGAUUCUGGUGAAUCUGCCAAUUCUGCUGU [G11C G58C], the self-cleavage came out at 0.751.

As for GGGGGCCACACCAGAAGCGUUCACGUCGCGGCCCCUGUCAGAUUCUGGUGAAUCUGCGAAUUUUGCUGU [G11C C63U], the self-cleavage stood at 0.416.

As for GGGGGCCACACCAGAAACGUUCACGUCGCGGCCCCUGUCAGAUUCUGGUGAAUCUGCGAAUUCUGCUGU [G11C G17A], the self-cleavage stood at 0.103.

For GGGGGCCACAACAGAAGCGUUCACGUCGCGGCCCCUGUCAGACUCUGGUGAAUCUGCGAAUUCUGCUGU [G11A U43C], the self-cleavage was 0.658.

Take GGGGGCCACAACAGAAGCGUUCACGUCGCGGCCCCUGUCAGAGUCUGGUGAAUCUGCGAAUUCUGCUGU [G11A U43G]: the self-cleavage worked out at 0.4.

For GGGGGCCACAACAGAAGCGUUCACGUCGCGGCCCCUGUCAGAAUCUGGUGAAUCUGCGAAUUCUGCUGU [G11A U43A], the self-cleavage was 0.442.

GGGGGCCACACCAGAAGCGUUCACGUCGCGGCCCCUGUCAGAUUCUGGUGAAUCUGCGAAUUCUGGUGU [G11C C66G]: the self-cleavage is 0.943.

In the case of GGGGGCCACACCAGAAGCGUUCACGUCGCGGCCCCUGUCAGAUUCUGGUGAAUCUGCGAAUUCUGUUGU [G11C C66U], the self-cleavage was 0.939.

As for GGGGGCCACAACAGAAGCGUUCACGUCGCGGCCCCUGUCAGAUUCUGGUGAAUCUGGGAAUUCUGCUGU [G11A C57G], the self-cleavage was 0.262.

Turning to GGGGGCCACACCAGAUGCGUUCACGUCGCGGCCCCUGUCAGAUUCUGGUGAAUCUGCGAAUUCUGCUGU [G11C A16U], the self-cleavage is 0.49.

As to GGGGGCCACACCAGACGCGUUCACGUCGCGGCCCCUGUCAGAUUCUGGUGAAUCUGCGAAUUCUGCUGU [G11C A16C], the self-cleavage came out at 0.276.

With GGGGGCCACACCAGAAGCGUUCGCGUCGCGGCCCCUGUCAGAUUCUGGUGAAUCUGCGAAUUCUGCUGU [G11C A23G], the self-cleavage was 0.626.

In the case of GGGGGCCACACCAGAAGCGUUCCCGUCGCGGCCCCUGUCAGAUUCUGGUGAAUCUGCGAAUUCUGCUGU [G11C A23C], the self-cleavage came out at 0.672.

Consider GGGGGCCACAACAUAAGCGUUCACGUCGCGGCCCCUGUCAGAUUCUGGUGAAUCUGCGAAUUCUGCUGU [G11A G14U], for which the self-cleavage amounted to 0.126.

Take GGGGGCCACAACAGAAGCGUUCACGUCGCGGCCCGUGUCAGAUUCUGGUGAAUCUGCGAAUUCUGCUGU [G11A C35G]: the self-cleavage came to 0.352.

Consider GGGGGCCACACCAGAAGCGUUCACGUCGCUGCCCCUGUCAGAUUCUGGUGAAUCUGCGAAUUCUGCUGU [G11C G30U], for which the self-cleavage stood at 0.225.

With GGGGGCCACACCAGAAGCGUUCAGGUCGCGGCCCCUGUCAGAUUCUGGUGAAUCUGCGAAUUCUGCUGU [G11C C24G], the self-cleavage stood at 0.114.

Regarding GGGGGCCACAACAGAAGCGUUCACGUCGCGGCCCCUGUCAGAUUCUGGUAAAUCUGCGAAUUCUGCUGU [G11A G50A], the self-cleavage stood at 0.852.

Consider GGGGGCCACAACAGAAGCGUUCACGCCGCGGCCCCUGUCAGAUUCUGGUGAAUCUGCGAAUUCUGCUGU [G11A U26C], for which the self-cleavage worked out at 0.863.

On to GGGGGCCACAACAGAAGCGUUCACGGCGCGGCCCCUGUCAGAUUCUGGUGAAUCUGCGAAUUCUGCUGU [G11A U26G], for which the self-cleavage stood at 0.734.

On to GGGGGCCACAACAGAAGCAUUCACGUCGCGGCCCCUGUCAGAUUCUGGUGAAUCUGCGAAUUCUGCUGU [G11A G19A], for which the self-cleavage was determined as 0.103.

The record behind these values is the RNAGym collection of RNA variant scans (doi:10.7554/elife.80360).
